Reference: patent publication US20260275312, “CRISPR NUCLEASE POLYPEPTIDES AND GENE EDITING SYSTEMS COMPRISING SUCH” (ARBOR BIOTECHNOLOGIES, INC., published 2026)

Columns and labels:
Nuclease W S925R = molecular target: T1, Nuclease W S925R (synthetic construct, S925R); test: cell_activity; HEK293T; PAM AAA; conditions: tags: N-term SV40 NLS, XTEN linker + C-term nucleoplasmin NLS
T1 chain: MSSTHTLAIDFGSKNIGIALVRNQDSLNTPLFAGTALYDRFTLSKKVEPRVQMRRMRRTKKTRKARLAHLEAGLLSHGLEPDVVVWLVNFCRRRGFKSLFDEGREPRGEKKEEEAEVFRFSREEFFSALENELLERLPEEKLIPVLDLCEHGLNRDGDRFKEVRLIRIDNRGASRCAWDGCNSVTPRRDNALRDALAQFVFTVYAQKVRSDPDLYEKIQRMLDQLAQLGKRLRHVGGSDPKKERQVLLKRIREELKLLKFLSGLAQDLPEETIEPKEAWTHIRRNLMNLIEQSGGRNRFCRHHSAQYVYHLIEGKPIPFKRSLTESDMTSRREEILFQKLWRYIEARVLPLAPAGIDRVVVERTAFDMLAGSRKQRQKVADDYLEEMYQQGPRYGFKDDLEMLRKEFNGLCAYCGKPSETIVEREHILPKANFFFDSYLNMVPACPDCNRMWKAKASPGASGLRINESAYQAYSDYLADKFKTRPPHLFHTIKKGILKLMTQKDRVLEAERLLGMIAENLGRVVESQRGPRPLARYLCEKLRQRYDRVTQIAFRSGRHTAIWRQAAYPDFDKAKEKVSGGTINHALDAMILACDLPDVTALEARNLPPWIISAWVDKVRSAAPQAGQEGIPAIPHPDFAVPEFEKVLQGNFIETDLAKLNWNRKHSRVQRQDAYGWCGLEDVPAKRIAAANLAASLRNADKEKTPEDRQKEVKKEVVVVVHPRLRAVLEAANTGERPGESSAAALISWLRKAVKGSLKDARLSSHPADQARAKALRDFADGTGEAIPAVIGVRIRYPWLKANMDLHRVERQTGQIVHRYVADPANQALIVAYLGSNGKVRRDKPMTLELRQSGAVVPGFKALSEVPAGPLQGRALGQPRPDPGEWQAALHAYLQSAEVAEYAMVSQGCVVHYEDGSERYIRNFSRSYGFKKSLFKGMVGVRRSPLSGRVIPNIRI
Experimental: Approximately 16 hours prior to transfection, 25,000 HEK293T cells in DMEM/10% FBS+Pen/Strep (D10 media) were plated into each well of a 96-well plate. On the day of transfection, the cells were 50-90% confluent. For each well to be transfected, a mixture of Lipofectamine 2000™ (ThermoFisher Scientific) and Opti-MEM™ (ThermoFisher Scientific) was prepared and incubated at room temperature for 5 minutes (Solution 1). After incubation, the Lipofectamine 2000™:Opti-MEM™ mixture was added to a separate mixture containing the CRISPR nuclease plasmid (NLS-tagged), RNA guide plasmid, and Opti-MEM™ (Solution 2). In the case of negative controls, the CRISPR nuclease plasmid was excluded. Solutions 1 and 2 were mixed by pipetting up and down, then incubated at room temperature for 25 minutes. Following incubation, the Solution 1 and 2 mixture was added dropwise to each well of a 96-well plate containing the cells. Approximately 72 hours post transfection, cells were trypsinized by adding TrypLE™ (Thermo Fisher Scientific) to the center of each well and incubating at 37° C. for approximately 5 minutes. D10 media was then added to each well and mixed to resuspend cells. […]
Cells were transfected, and samples were prepared for NGS as described in Example 1. Indel ratios, referring to the percentage of NGS reads comprising indels, were calculated for the reference and for each variant. […]

Nuclease H L323R = molecular target: T2, Nuclease H L323R (synthetic construct, L323R); test: cell_activity; HEK293T; PAM AAC; conditions: tags: N-term SV40 NLS, XTEN linker + C-term nucleoplasmin NLS
T2 chain: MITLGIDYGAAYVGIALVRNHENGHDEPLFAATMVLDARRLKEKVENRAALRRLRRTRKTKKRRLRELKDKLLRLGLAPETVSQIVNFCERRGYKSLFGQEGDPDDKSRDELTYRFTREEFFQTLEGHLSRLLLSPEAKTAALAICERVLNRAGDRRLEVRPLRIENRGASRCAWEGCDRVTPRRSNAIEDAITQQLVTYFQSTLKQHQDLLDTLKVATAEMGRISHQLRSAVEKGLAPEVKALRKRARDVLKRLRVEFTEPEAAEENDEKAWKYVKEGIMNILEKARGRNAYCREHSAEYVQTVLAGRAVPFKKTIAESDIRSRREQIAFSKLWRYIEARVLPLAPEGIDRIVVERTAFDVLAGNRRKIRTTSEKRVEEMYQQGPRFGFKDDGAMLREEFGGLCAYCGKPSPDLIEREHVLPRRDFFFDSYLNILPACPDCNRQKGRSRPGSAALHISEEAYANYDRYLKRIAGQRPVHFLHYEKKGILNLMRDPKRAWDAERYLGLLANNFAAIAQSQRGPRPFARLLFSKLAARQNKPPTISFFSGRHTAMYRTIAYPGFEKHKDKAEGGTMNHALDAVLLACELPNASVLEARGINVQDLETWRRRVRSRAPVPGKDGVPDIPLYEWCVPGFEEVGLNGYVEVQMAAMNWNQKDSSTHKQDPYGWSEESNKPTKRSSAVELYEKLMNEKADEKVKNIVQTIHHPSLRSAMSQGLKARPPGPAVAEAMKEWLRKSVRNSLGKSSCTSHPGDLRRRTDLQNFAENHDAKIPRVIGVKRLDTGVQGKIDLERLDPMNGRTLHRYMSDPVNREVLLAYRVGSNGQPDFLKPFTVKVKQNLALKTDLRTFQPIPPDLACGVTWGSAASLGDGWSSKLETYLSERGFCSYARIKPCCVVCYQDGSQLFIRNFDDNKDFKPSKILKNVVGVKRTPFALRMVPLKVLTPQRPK
Experimental: HEK293T cells were transfected with plasmids expressing the Nuclease H polypeptides and the gRNAs provided herein following the methods provided in Example 1 above. Gene editing efficiencies were determined by NGS following the methods also provided in Example 1. The NGS results were analyzed also following the methods provided in Example 1 above.
Indel ratios, referring to the percentage of NGS reads comprising indels, were calculated for the reference and for each variant. The indel ratios used for fold change calculations were the average of two technical replicates. To then calculate fold change in indel ratios, the indel ratio for each variant was divided by the indel ratio for the reference. […] Numbering is relative to the reference nuclease of SEQ ID NO: 64 (i.e., without an NLS).

B1: W EMX1-T5 RNA guide ; EMX1-T5 target (W) (ssRNA ; dsDNA)
RNA: UAAACUACAGUGGUGCCUGGGUUUCAGCUACCCUGAGUUUCUCAACUCCGUUGAGACUUCCUCAGGUUCAAGCUGAAAAGAGCAUCUGUCCGGAAGGACCACUCCGGGUUAGGGCAGACCCGGCUCUUGGGCUUCCUUGGUCUUUGACUCUGGAGGAAACCUUCCGGCGUGUCGCAAGACAAGAUGUGAGCCUG
DNA 1: TAAACTACAGTGGTGCCTGG
DNA 2: CCAGGCACCACTGTAGTTTA
- fold change in indel ratio vs reference (Nuclease W S925R): 3.44 fold indel vs reference

B2: H AAVS1-T5 RNA guide ; AAVS1-T5 target (H) (ssRNA ; dsDNA)
RNA: GGCUAUAAUCCAUGCUGACCGUUUCAAUCAACCUGAUCUCUCUGCUUGCGCUGCAGGCUUCAUAAGAUCAGUAGGUUGAAAAGAGCAUCCGUCCGACAUGCACUCCGGGAUGGGGCAGUCCCGGCUCUUGCGGUUCCCGAUGCAGUUAUGUGUCCGCGGAACACGGUGUCGGACACGUCGCAAGACAGGAUGUGAGCCCAUUAUCCACAUUAGGAUCAAUGUACGCAUGAGCAGUCCGCAAUGCCGGGGACGCU
DNA 1: GGCTATAATCCATGCTGACC
DNA 2: GGTCAGCATGGATTATAGCC
- fold change in indel ratio vs reference (Nuclease H L323R): 5.91 fold indel vs reference
